T1: ECF17_1458
T1 chain: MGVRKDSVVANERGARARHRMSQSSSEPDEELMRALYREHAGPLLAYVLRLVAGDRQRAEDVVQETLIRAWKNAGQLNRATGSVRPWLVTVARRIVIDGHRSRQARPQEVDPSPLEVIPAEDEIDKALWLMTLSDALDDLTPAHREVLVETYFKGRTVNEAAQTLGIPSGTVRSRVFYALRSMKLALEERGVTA

T2: ECF03_1244
T2 chain: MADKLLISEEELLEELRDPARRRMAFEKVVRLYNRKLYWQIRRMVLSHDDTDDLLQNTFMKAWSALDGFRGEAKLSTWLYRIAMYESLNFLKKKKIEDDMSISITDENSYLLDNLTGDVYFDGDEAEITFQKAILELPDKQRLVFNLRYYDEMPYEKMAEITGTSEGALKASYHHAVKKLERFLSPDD

T3: ECF20_992
T3 chain: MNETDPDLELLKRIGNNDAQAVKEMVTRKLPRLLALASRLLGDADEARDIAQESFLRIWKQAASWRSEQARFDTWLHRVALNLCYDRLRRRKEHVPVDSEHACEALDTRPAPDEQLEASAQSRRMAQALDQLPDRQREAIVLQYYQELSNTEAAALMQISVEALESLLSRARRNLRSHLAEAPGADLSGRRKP

T4: ECF34_1384
T4 chain: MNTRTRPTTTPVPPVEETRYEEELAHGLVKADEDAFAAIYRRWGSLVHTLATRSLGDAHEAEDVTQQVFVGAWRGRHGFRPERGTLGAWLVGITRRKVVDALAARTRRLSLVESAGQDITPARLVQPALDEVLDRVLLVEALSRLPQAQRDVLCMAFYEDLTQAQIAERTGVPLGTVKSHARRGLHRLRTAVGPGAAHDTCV

T5: ECF15_436
T5 chain: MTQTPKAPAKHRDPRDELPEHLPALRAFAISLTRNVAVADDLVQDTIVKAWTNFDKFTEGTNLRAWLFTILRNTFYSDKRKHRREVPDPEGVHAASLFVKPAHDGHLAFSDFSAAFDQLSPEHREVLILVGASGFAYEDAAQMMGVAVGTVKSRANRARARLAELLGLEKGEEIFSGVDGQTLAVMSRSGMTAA

T6: ECF22_4450
T6 chain: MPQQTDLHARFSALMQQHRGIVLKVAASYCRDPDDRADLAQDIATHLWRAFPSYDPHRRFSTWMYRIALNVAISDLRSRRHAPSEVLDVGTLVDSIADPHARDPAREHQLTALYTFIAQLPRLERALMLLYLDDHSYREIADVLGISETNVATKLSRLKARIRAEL


Assays:
[1] = target: T1, ECF17_1458
[2] = target: T2, ECF03_1244
[3] = target: T3, ECF20_992
[4] = target: T4, ECF34_1384
[5] = target: T5, ECF15_436
[6] = target: T6, ECF22_4450

Binder	fold repression [1]	fold repression [2]	fold repression [3]	fold repression [4]	fold repression [5]	fold repression [6]
AS33_375 (protein) MMALSKKMLEQEPSEIELLLPWHAAGTLNARDARRVEDALARDPELAKQYAAIRGEYEETIHLNESLGAPSARAMQKLFGAIDAEPARETGSLPLSARIATFFASLSPRTLAWSASLGAVALVLQAGIIGAVLMKTQPTTFQTASLSTSAPITRELGAAVAPARALVRFTPEARVADITALLDSYQASIIGDAKGGMFRLQFDKAMSQDELASLLGRMQREKFVNLAVAAP	11.3	16.3	20.7	12.2	20.3	31
AS37_2513 (protein) MSSAPATKEEVDFALKVRRALDERAASLPDATTDRLAAARRAALARKKPDAAIVLVPALAGSAGTLELRPPGEPRKSLARRLARAWPLALLLAGLIGIAYWEDMQRTAELADIDAAMLSDNLPLTAYLDHGFNAYLSHTH	5.87	3.44	5.31	6.47	5.3	7.22
AS31_34 (protein) MNKEKLSDHLKSEWKKIDQTANPSIPNQKELLHQLSQMKAEYRKKLLQEIILFVFCALMVVSAAILAFTQAPAVFIVLQVCVLAVLPILIAAEKKRHLGECEVKRG	4.02	2.34	2.35	2.98	2.54	3.59
AS27_4265 (protein) MTGHPDVAEIADLAEGLLPTTRTTEVRQHLESCELCADVYASLTEIQGLLGTLPAPAPMPDDVAARIDAALAAEPPLGIADGTRVSRETSTPADRPAGHARPSSTGPGRKDRRRGGRRRIAVLGAVAAAAAIGIGSVVVSSLTEDSSSGNTAREQQTAIADTFSEGRLKDRVTNLVADGSAENGSRTPRSFGMESENGGETAENHVFKQPTVPECIRKGIGRDDAVIATEPGVYKGREALLVVLPDATNDTQVTAYIVETACVDQPAVGKAKILLEHSYARS	2.47	1.38	15.2	5.28	3.65	4.03
AS38_1322 (protein) MSDGNDARPDARDGHDPGSDARDGHDPGSHARDGHDPGAGPFDGHGPGSDAGDGDDAGPDARDGHGAPAGPAGREQRKHPHDTHDMHDTHDTHAGKGTVNHGPAAQGPDAPGADGPATDEAALRAMMQRAVREMEPSDGTLEHLRRAVPARRARKRQALVGAAAAALFLGTAVPALVHVSNATGAGADPSVAGNASQAQGGASQGKDPAGGQSGVAGTGDTPEDRDKADPKETPGGKEPGAATGAPPSGVPSASSPADVPACAPGSLGPAVASSAEPDSTGVVYGSFRVTNVSSDGCTVTGPGTVVTASLGAAEATRIGTARHAAGDAAAGLPDPSLETASLALAPGAAYEVQFAWVPSETCPTTGGTTGGGSGGPSPDPSPTADTTAAGGTSAGGGEAGPTTQLITEDGPAEGSVSVTYTPEGGSGSATATVSNACAGTVYWTGLLADSGSGA	4.75	4.75	3.28	6.19	5.64	6.3
AS25_1645 (protein) MNESFSQRQTDGDRRRGGDLEMKKNHTSHQHHTDSETPMGHNFEQFQRLSAYFDGEATPAERKEIQHLLDTDPQVKQQYQQLRQLKQALQLLPIPTSISAQYLGQRVLARLRRSQLRTLSLWGSGAIAALFVAGVMGQMPRLNFDRFAKNDPDQQPTAALVETSPQGEEALVVALNRPVLQIPKLATTESP	7.18	4.7	5.73	7.62	8.62	9.86
AS27_1331 (protein) MSAADKDPDKHSADADPPLTVELLADLQAGLLDDATAARIRSRVRSDPQAQQILRALNRVRRDVAAMGADPAWGPAARPAVVDSISAALRSARPNSSPGAAHAARPHVHPVRMIAGAAGLCAVATAIGVGAVVDAPPPAPSAPTTAQHITVSKPAPVIPLSRPQVLDLLHHTPDYGPPGGPLGDPSRRTSCLSGLGYPASTPVLGAQPIDIDARPAVLLVIPADTPDKLAVFAVAPHCSAADTGLLASTVVPRA	2.79	4.29	6.81	2.35	4.26	5.86
AS35_3582 (protein) MNPQKHSASVAEEQMLAHFRAHAPQQPAPALDQAILAAARRQAAHVEPARSWWRRWLEASRRPRWQAAFASLLGVALVLGLVSHNVLDDAERQARPEVAFSDVPLRDGVAGAAAAKRAMRAPAAPAPLSGEMSEPPALLASYASSGEAPQLMAEAAPPAPAALADRPPAQAAQQAKVQAALAGDFVAQARGKAVAVKPEVLDEALGAVLALREQGKTEQAATQLAELQKRFPGENLVERLERLATIAASARKRP	7.06	4.18	3.26	9.31	7.43	8.03
AS30_35 (protein) MDKRLQQLREEYKNVQIPKELDIIVEKALQQEPKKKRIVMWPTSAAIAAAILFTALVNINPDAAQAMSKIPVIGKIVKAITFIEIKEEKDQSSIDVKTPALSGLSNKELENSINEKYLKESQQLYKEFIQSTSKNKKGHLSIYSDYETVTDTPDLLSIRRNIETTQASSYTQSRYITIDKKNDILLTLKSLFKDERYIKVISQNIKEQMKQQMKEDPNKIYWLTDEDAEPFKTILPDQTFYITEDHKLVISFDEYEVAPGYMGVTEFTIPTGVISNLLVGERYIR	1.52	1.74	2.34	2.04	1.98	2.21
AS33_423 (protein) MMAMSNTMPDPREPGDVEALLPWYAAGTLNARDARRVADALDRDPALARQYAVILEEYASTIELNESLGAPSSRAMQKLFAAIDAEPARAPGAGQGLGARFAGFFAGLSPKALAWSASVAGLALLLQAGLIGALLTWPHAAPVQTAAYQPQREVARAPASSPAPATVSPPAAAMADRAADAGKSTPPMVMAERSGGPVVRSLAPQSGPRVLVKFAPEARASEIAALLDQYNAVVVDSSRGGLFRLQFGTQSLSKQDQETLIGRLQKEPVVSVVLSAP	8.41	13.5	14.2	8.97	14.3	23.1
